Assay results reported in US20230002480A1.

Assays:
Assay in all cases: cell-based or functional assay
[1] = target: HIV-1 Env of pseudovirus 231965.c01 (HIV-1)
[2] = target: HIV-1 Env of pseudovirus 3016.v5.c45 (HIV-1)
[3] = target: HIV-1 Env of pseudovirus 6240_08_TA5_4622 (HIV-1)
[4] = target: HIV-1 Env of pseudovirus 6535.3 (HIV-1)
[5] = target: HIV-1 Env of pseudovirus 6545.v4.c1 (HIV-1)
[6] = target: HIV-1 Env of pseudovirus 7030102001E5(Rev-) (HIV-1)
[7] = target: HIV-1 Env of pseudovirus 89-F1_2_25 (HIV-1)
[8] = target: HIV-1 Env of pseudovirus A07412M1.vrc12 (HIV-1)
[9] = target: HIV-1 Env of pseudovirus AC10.0.29 (HIV-1)
[10] = target: HIV-1 Env of pseudovirus BJOX028000.10.3 (HIV-1)
[11] = target: HIV-1 Env of pseudovirus CAAN5342.A2 (HIV-1)
[12] = target: HIV-1 Env of pseudovirus CAP210.2.00.E8 (HIV-1)
[13] = target: HIV-1 Env of pseudovirus CNE17 (HIV-1)
[14] = target: HIV-1 Env of pseudovirus CNE21 (HIV-1)
[15] = target: HIV-1 Env of pseudovirus CNE52 (HIV-1)
[16] = target: HIV-1 Env of pseudovirus Ce0393_C3 (HIV-1)
[17] = target: HIV-1 Env of pseudovirus Ce1172_H1 (HIV-1)
[18] = target: HIV-1 Env of pseudovirus Ce1176_A3 (HIV-1)
[19] = target: HIV-1 Env of pseudovirus Ce2060_G9 (HIV-1)
[20] = target: HIV-1 Env of pseudovirus Ce703010054_2A2 (HIV-1)
[21] = target: HIV-1 Env of pseudovirus HIV-001428-2.42 (HIV-1)
[22] = target: HIV-1 Env of pseudovirus HIV-16845-2.22 (HIV-1)
[23] = target: HIV-1 Env of pseudovirus MS208.A1 (HIV-1)
[24] = target: HIV-1 Env of pseudovirus P1981_C5_3 (HIV-1)
[25] = target: HIV-1 Env of pseudovirus Q259.d2.17 (HIV-1)
[26] = target: HIV-1 Env of pseudovirus Q461.e2 (HIV-1)
[27] = target: HIV-1 Env of pseudovirus R2184.c04 (HIV-1)
[28] = target: HIV-1 Env of pseudovirus REJO4541.67 (HIV-1)
[29] = target: HIV-1 Env of pseudovirus RHPA4259.7 (HIV-1)
[30] = target: HIV-1 Env of pseudovirus T255-34 (HIV-1)
[31] = target: HIV-1 Env of pseudovirus TRO.11 (HIV-1)
[32] = target: HIV-1 Env of pseudovirus WEAU_d15_410_787 (HIV-1)
[33] = target: HIV-1 Env of pseudovirus WITO4160.33 (HIV-1)
[34] = target: HIV-1 Env of pseudovirus X1254_c3 (HIV-1)
[35] = target: HIV-1 Env of pseudovirus X2131_C1_B5 (HIV-1)
[36] = target: HIV-1 Env of pseudovirus ZM247v1(Rev-) (HIV-1)
[37] = target: HIV-1 Env of pseudovirus ZM249M.PL1 (HIV-1)

PGT128 (antibody)
IC50, titer in TZM.bl cells [1]: > 50 µg/mL | IC80, titer in TZM.bl cells [1]: > 50 µg/mL | IC50, titer in TZM.bl cells [2]: > 50 µg/mL | IC80, titer in TZM.bl cells [2]: > 50 µg/mL | IC50 [3]: 0.019 µg/mL | IC80 [3]: 0.055 µg/mL | IC50 [4]: 0.004 µg/mL | IC80 [4]: 0.016 µg/mL | IC50, titer in TZM.bl cells [5]: > 50 µg/mL | IC80, titer in TZM.bl cells [5]: > 50 µg/mL | IC50 [6]: 0.007 µg/mL | IC80 [6]: 0.022 µg/mL | IC50, titer in TZM.bl cells [7]: > 50 µg/mL | IC80, titer in TZM.bl cells [7]: > 50 µg/mL | IC50, titer in TZM.bl cells [8]: > 50 µg/mL | IC80, titer in TZM.bl cells [8]: > 50 µg/mL | IC50 [9]: 0.008 µg/mL | IC80 [9]: 0.018 µg/mL | IC50, titer in TZM.bl cells [10]: 0.024 µg/mL | IC80, titer in TZM.bl cells [10]: 0.07 µg/mL | IC50 [11]: 0.514 µg/mL | IC80 [11]: > 50 µg/mL | IC50 [12]: > 50 µg/mL | IC80 [12]: > 50 µg/mL | IC50 [13]: 0.432 µg/mL | IC80 [13]: 1.99 µg/mL | IC50 [14]: 0.01 µg/mL | IC80 [14]: 0.026 µg/mL | IC50 [15]: > 50 µg/mL | IC80 [15]: > 50 µg/mL | IC50 [16]: > 50 µg/mL | IC80 [16]: > 50 µg/mL | IC50 [17]: 0.013 µg/mL | IC80 [17]: 0.038 µg/mL | IC50 [18]: 0.009 µg/mL | IC80 [18]: 0.026 µg/mL | IC50 [19]: > 50 µg/mL | IC80 [19]: > 50 µg/mL | IC50 [20]: > 50 µg/mL | IC80 [20]: > 50 µg/mL | IC50 [21]: 0.026 µg/mL | IC80 [21]: 0.095 µg/mL | IC50 [22]: 0.181 µg/mL | IC80 [22]: 0.834 µg/mL | IC50 [23]: > 50 µg/mL | IC80 [23]: > 50 µg/mL | IC50, titer in TZM.bl cells [24]: 0.019 µg/mL | IC80, titer in TZM.bl cells [24]: 0.088 µg/mL | IC50 [25]: > 50 µg/mL | IC80 [25]: > 50 µg/mL | IC50 [26]: > 50 µg/mL | IC80 [26]: > 50 µg/mL | IC50, titer in TZM.bl cells [27]: 20.1 µg/mL | IC80, titer in TZM.bl cells [27]: > 50 µg/mL | IC50 [28]: > 50 µg/mL | IC80 [28]: > 50 µg/mL | IC50 [29]: 0.026 µg/mL | IC80 [29]: 0.109 µg/mL | IC50, titer in TZM.bl cells [30]: > 50 µg/mL | IC80, titer in TZM.bl cells [30]: > 50 µg/mL | IC50 [31]: 0.019 µg/mL | IC80 [31]: 0.045 µg/mL | IC50 [32]: 0.032 µg/mL | IC80 [32]: 0.153 µg/mL | IC50 [33]: > 50 µg/mL | IC80 [33]: > 50 µg/mL | IC50, titer in TZM.bl cells [34]: > 50 µg/mL | IC80, titer in TZM.bl cells [34]: > 50 µg/mL | IC50, titer in TZM.bl cells [35]: > 50 µg/mL | IC80, titer in TZM.bl cells [35]: > 50 µg/mL | IC50 [36]: 0.021 µg/mL | IC80 [36]: 0.081 µg/mL | IC50 [37]: 39.7 µg/mL | IC80 [37]: > 50 µg/mL

PGT145 (antibody)
IC50, titer in TZM.bl cells [1]: 0.403 µg/mL | IC80, titer in TZM.bl cells [1]: 15 µg/mL | IC50, titer in TZM.bl cells [2]: > 50 µg/mL | IC80, titer in TZM.bl cells [2]: > 50 µg/mL | IC50 [3]: > 50 µg/mL | IC80 [3]: > 50 µg/mL | IC50 [4]: > 50 µg/mL | IC80 [4]: > 50 µg/mL | IC50, titer in TZM.bl cells [5]: 0.114 µg/mL | IC80, titer in TZM.bl cells [5]: 3.1 µg/mL | IC50 [6]: > 50 µg/mL | IC80 [6]: > 50 µg/mL | IC50, titer in TZM.bl cells [7]: 0.8 µg/mL | IC80, titer in TZM.bl cells [7]: 20 µg/mL | IC50, titer in TZM.bl cells [8]: 0.002 µg/mL | IC80, titer in TZM.bl cells [8]: 0.023 µg/mL | IC50 [9]: 0.01 µg/mL | IC80 [9]: 0.025 µg/mL | IC50, titer in TZM.bl cells [10]: > 50 µg/mL | IC80, titer in TZM.bl cells [10]: > 50 µg/mL | IC50 [11]: 6.67 µg/mL | IC80 [11]: 25.5 µg/mL | IC50 [12]: 37.8 µg/mL | IC80 [12]: > 50 µg/mL | IC50 [13]: 0.091 µg/mL | IC80 [13]: 1.16 µg/mL | IC50 [14]: < 0.001 µg/mL | IC80 [14]: 0.009 µg/mL | IC50 [15]: 0.02 µg/mL | IC80 [15]: 0.091 µg/mL | IC50 [16]: 0.112 µg/mL | IC80 [16]: 1.23 µg/mL | IC50 [17]: 0.26 µg/mL | IC80 [17]: 2.06 µg/mL | IC50 [18]: > 50 µg/mL | IC80 [18]: > 50 µg/mL | IC50 [19]: 0.016 µg/mL | IC80 [19]: 0.205 µg/mL | IC50 [20]: > 50 µg/mL | IC80 [20]: > 50 µg/mL | IC50 [21]: 0.001 µg/mL | IC80 [21]: 0.083 µg/mL | IC50 [22]: > 50 µg/mL | IC80 [22]: > 50 µg/mL | IC50 [23]: 0.334 µg/mL | IC80 [23]: 18 µg/mL | IC50, titer in TZM.bl cells [24]: 5.41 µg/mL | IC80, titer in TZM.bl cells [24]: > 50 µg/mL | IC50 [25]: 44.2 µg/mL | IC80 [25]: > 50 µg/mL | IC50 [26]: 7.8 µg/mL | IC80 [26]: > 50 µg/mL | IC50, titer in TZM.bl cells [27]: 0.073 µg/mL | IC80, titer in TZM.bl cells [27]: 0.376 µg/mL | IC50 [28]: < 0.001 µg/mL | IC80 [28]: 0.001 µg/mL | IC50 [29]: 0.029 µg/mL | IC80 [29]: 0.095 µg/mL | IC50, titer in TZM.bl cells [30]: > 50 µg/mL | IC80, titer in TZM.bl cells [30]: > 50 µg/mL | IC50 [31]: 0.04 µg/mL | IC80 [31]: 0.118 µg/mL | IC50 [32]: 1.95 µg/mL | IC80 [32]: 31.5 µg/mL | IC50 [33]: < 0.001 µg/mL | IC80 [33]: 0.001 µg/mL | IC50, titer in TZM.bl cells [34]: 5.6 µg/mL | IC80, titer in TZM.bl cells [34]: > 50 µg/mL | IC50, titer in TZM.bl cells [35]: 0.018 µg/mL | IC80, titer in TZM.bl cells [35]: 0.065 µg/mL | IC50 [36]: 7.19 µg/mL | IC80 [36]: > 50 µg/mL | IC50 [37]: 1.44 µg/mL | IC80 [37]: > 50 µg/mL
